US5693476
Several values for one entry are separate records, joined by “and”; a condition that tells them apart may be missing. Equal values may be shown once.

Experiments:
[1] = target: GST-syntaxin 1A H3 domain construct Syn 1A16 (amino acids 191-266) (Schistosoma japonicum; rat); experiment: 20S complex assembly on GST-syntaxin beads with all four proteins together, ATPγS, 18° C. overnight MgCl2, Western blot densitometry, FIG. 6B
[2] = target: GST-syntaxin 1A deletion mutant Syn 1A17 (amino acids 4-240) (Schistosoma japonicum; rat); experiment: as above
[3] = target: GST-syntaxin 1A cytoplasmic domain fusion protein (Syn 1A11, amino acids 4-266), immobilized on glutathione agarose beads (Schistosoma japonicum; rat); experiment: as above
[4] = target: GST-syntaxin 1A deletion mutant Syn 1A13 (amino acids 4-221) (Schistosoma japonicum; rat); experiment: as above
[5] = target: GST-syntaxin 1A deletion mutant Syn 1A6 (amino acids 4-190) (Schistosoma japonicum; rat); experiment: as above
[6] = target: GST-syntaxin 1A H3 domain construct Syn 1A16 (amino acids 191-266) (Schistosoma japonicum; rat); experiment: 20S complex on GST-Syn 1A16 beads, ATP and Mg++, Western blot densitometry
[7] = target: GST-syntaxin 1A cytoplasmic domain fusion protein (Syn 1A11, amino acids 4-266), immobilized on glutathione agarose beads (Schistosoma japonicum; rat); experiment: 20S complex on GST-Syn 1A11 beads, ATP and MgCl2, Western blot densitometry
[8] = target: GST-VAMP (full cytoplasmic domain of VAMP), immobilized on glutathione agarose beads (Schistosoma japonicum; rat); experiment: GST pull-down on glutathione agarose beads, Western blot (anti-α-SNAP), densitometry, FIG. 3
[9] = target: GST (glutathione-S-transferase) alone, immobilized on glutathione agarose beads (Schistosoma japonicum) [GST: P08515]; experiment: as above
[10] = target: GST-syntaxin 1A cytoplasmic domain fusion protein (Syn 1A11, amino acids 4-266), immobilized on glutathione agarose beads (Schistosoma japonicum; rat); experiment: as above
[11] = target: GST-SNAP-25, immobilized on glutathione agarose beads (Schistosoma japonicum; mouse); experiment: as above
[12] = target: GST-syntaxin 1A cytoplasmic domain fusion protein (Syn 1A11, amino acids 4-266), immobilized on glutathione agarose beads (Schistosoma japonicum; rat); experiment: 20S complex on GST-Syn 1A11 beads, ATP and Mg++, Western blot densitometry

Sequence of His-tagged α-SNAP (soluble NSF attachment protein), soluble recombinant (P81125 whole entry): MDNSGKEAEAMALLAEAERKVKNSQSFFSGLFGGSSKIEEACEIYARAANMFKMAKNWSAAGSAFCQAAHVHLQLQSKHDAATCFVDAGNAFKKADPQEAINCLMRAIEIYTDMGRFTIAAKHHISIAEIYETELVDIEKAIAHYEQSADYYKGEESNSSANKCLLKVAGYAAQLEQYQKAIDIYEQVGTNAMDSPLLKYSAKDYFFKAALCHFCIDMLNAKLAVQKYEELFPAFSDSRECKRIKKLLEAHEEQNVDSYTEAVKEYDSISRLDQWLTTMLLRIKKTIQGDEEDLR

Substance | densitometry pixel value [1] [pixel value] | densitometry pixel value [2] [pixel value] | densitometry pixel value [3] [pixel value] | densitometry pixel value [4] [pixel value] | densitometry pixel value [5] [pixel value] | percent dissociated in the presence of ATP and Mg++ [6] [%] | percent dissociated from syntaxin following ATP hydrolysis by NSF [7] | densitometry pixel value [8] [pixel value] | densitometry pixel value [9] [pixel value] | densitometry pixel value [10] [pixel value] | densitometry pixel value [11] [pixel value] | percent remaining associated with the GST-syntaxin beads [12] [%]
His-tagged α-SNAP (soluble NSF attachment protein), soluble recombinant (from UniProt P81125) | 1420 | 1070 | 1040 | 0 | 0 | 0 | 70% and 90% | 8 | 0 | 1830 | 33 | –
SNAP-25 (synaptosomal-associated protein of 25 kDa), soluble recombinant | 504 | 415 | 85 | 1340 | 0 | 5 | – | – | – | – | – | 90
VAMP (vesicle-associated membrane protein; VAMP 2), soluble recombinant | 944 | 812 | 691 | 1310 | 0 | 0 | 80% and 90% | – | – | – | – | –
